In experiment [1] the target is T1, prostate specific membrane antigen (PSMA) on LNCaP cells (human, UniProt Q04609 1-750). The experiment can be described thus: cell-based or functional assay.
For experiment [2], the target named is T1, prostate specific membrane antigen …. The experiment can be described thus: cell-based or functional assay. The source holds these as a separate data set.

T1 sequence (Q04609 whole entry): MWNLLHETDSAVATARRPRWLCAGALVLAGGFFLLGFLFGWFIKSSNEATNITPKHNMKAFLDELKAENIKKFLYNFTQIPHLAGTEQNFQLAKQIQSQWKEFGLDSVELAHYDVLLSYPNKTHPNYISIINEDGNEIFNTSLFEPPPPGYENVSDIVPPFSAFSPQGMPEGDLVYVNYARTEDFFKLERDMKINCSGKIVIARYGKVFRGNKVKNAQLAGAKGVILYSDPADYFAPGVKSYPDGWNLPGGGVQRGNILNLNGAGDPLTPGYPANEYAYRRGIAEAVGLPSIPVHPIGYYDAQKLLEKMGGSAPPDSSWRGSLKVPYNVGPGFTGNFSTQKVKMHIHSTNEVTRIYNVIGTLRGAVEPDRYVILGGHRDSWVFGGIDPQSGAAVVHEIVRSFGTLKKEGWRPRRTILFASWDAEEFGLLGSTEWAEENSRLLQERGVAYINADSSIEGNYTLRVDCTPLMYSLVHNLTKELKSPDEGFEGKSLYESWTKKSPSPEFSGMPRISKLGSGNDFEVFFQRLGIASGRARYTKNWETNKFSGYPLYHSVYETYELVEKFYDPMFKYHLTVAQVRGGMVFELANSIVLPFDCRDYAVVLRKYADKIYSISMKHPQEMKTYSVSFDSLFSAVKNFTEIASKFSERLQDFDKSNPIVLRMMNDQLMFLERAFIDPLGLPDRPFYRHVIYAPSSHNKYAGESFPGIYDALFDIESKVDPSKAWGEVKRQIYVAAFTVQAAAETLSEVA

B1: anti-PSMA human monoclonal antibody 7F12 expressed in eggs of chimeric chickens (lacks fucose residues) (antibody, IgG1, V domains shown)
VH: AVQLVQSGAEVKKPGESLKISCKGSGYSFTSFWIGWARQMPGKGLEWMGIIYPGDSDTRYSPSFQGQVTISADKSISTAYLQWSSLKASDTAMYYCATANSSFWNFDLWGRGTLVTVSS
VL: EIVLTQSPATLSLSPGERATLSCRASQSVSSYLAWYQQKPGQAPRLLIYDASNRATGIPARFSGSGSGTDFTLTISSLEPEDFAVYYCQQRSNWLMYTFGQGTKLEIK
modifications: N-linked Fc glycans without fucosyl residues (high-mannose, complex and hybrid type)
In the case of B1, in experiment [1], the “ADCC % lysis at 1 µg/ml antibody, no anti-CD16 antibody” value (from here on “ADCC % lysis … no anti-CD16 antibody”) is approximately 38%; the “ADCC EC50, 51Cr release, LNCaP-C42b targets, IL-2 stimulated effector cells” value was found to be 0.018 µg/mL; the “ADCC EC50 fold difference against CHO-expressed 7F12” value is approximately 6 fold lower; the “EC50 for antibody internalization (Hum-Zap saporin conjugate, LNCaP cell viability)” value amounted to 0.49 nM.

B2: anti-PSMA human monoclonal antibody 7F12 expressed in CHO cells (fucosylated) (antibody, human IgG1, V domains shown)
VH: AVQLVQSGAEVKKPGESLKISCKGSGYSFTSFWIGWARQMPGKGLEWMGIIYPGDSDTRYSPSFQGQVTISADKSISTAYLQWSSLKASDTAMYYCATANSSFWNFDLWGRGTLVTVSS
VL: EIVLTQSPATLSLSPGERATLSCRASQSVSSYLAWYQQKPGQAPRLLIYDASNRATGIPARFSGSGSGTDFTLTISSLEPEDFAVYYCQQRSNWLMYTFGQGTKLEIK
modifications: N-linked Fc glycans containing fucosyl residues
Turning to B2, in experiment [1], the “ADCC % lysis … no anti-CD16 antibody” value is approximately 15%; the “ADCC EC50, 51Cr release, LNCaP-C42b targets, IL-2 stimulated effector cells” value turned out to be 0.11 µg/mL; the “EC50 for antibody internalization (Hum-Zap saporin conjugate, LNCaP cell viability)” value stood at 0.49 nM.

B3: anti-PSMA fully human monoclonal antibody 2A10 expressed in CHO DG44 cells (fucosylated) (antibody, V domains shown)
VH: EVQLVQSGAEVKKPGESLKISCKGSGYSFTSNWIGWVRQMPGKGLEWMGIIYPGDSDTRYSPSFQGQVTISADKSISTAYLQWSSLKASDTAMYYCARQTGFLWSSDLWGRGTLVTVSS
VL: AIQLTQSPSSLSASVGDRVTITCRASQDISSALAWYQQKPGKAPKLLIYDASSLESGVPSRFSGYGSGTDFTLTINSLQPEDFATYYCQQFNSYPLTFGGGTKVEIK
modifications: N-linked glycans containing fucose
In the case of B3, in experiment [2], the “ADCC EC50 (µg/ml) Fucosylated, Expt. #1 (IL-2 stimulated effector cells, LNCaP-C42b targets)” value is 0.08 µg/mL; the “ADCC EC50 (µg/ml) Fucosylated, Expt. #2 (IL-2 stimulated effector cells, LNCaP-C42b targets)” value was found to be 0.026 µg/mL; the “ADCC EC50 (µg/ml) Fucosylated, Expt. #3 (fresh human peripheral blood effector cells, LNCaP-C42b targets)” value worked out at 0.036 µg/mL. Moreover, the “ADCC % lysis … no anti-CD16 antibody” value in experiment [1] is approximately 12%.

B4: anti-PSMA fully human monoclonal antibody 2A10 expressed in FUT8-/- Ms704 cells (defucosylated) (antibody, IgG1, V domains shown)
VH: EVQLVQSGAEVKKPGESLKISCKGSGYSFTSNWIGWVRQMPGKGLEWMGIIYPGDSDTRYSPSFQGQVTISADKSISTAYLQWSSLKASDTAMYYCARQTGFLWSSDLWGRGTLVTVSS
VL: AIQLTQSPSSLSASVGDRVTITCRASQDISSALAWYQQKPGKAPKLLIYDASSLESGVPSRFSGYGSGTDFTLTINSLQPEDFATYYCQQFNSYPLTFGGGTKVEIK
modifications: N-linked glycans without fucose residues
Regarding B4, in experiment [2], the “ADCC EC50 (µg/ml) Defucosylated, Expt. #1 (IL-2 stimulated effector cells, LNCaP-C42b targets)” value was found to be 0.007 µg/mL; the “ADCC EC50 (µg/ml) Defucosylated, Expt. #2 (IL-2 stimulated effector cells, LNCaP-C42b targets)” value turned out to be 0.009 µg/mL; the “ADCC EC50 (µg/ml) Defucosylated, Expt. #3 (fresh human peripheral blood effector cells, LNCaP-C42b targets)” value was 0.002 µg/mL; the “ADCC EC50 Ratio (fucosylated to defucosylated 2A10), Expt. #1” value came to 11.4 ratio. In addition, in experiment [2], the “ADCC EC50 Ratio (fucosylated to defucosylated 2A10), Expt. #2” value is 2.9 ratio and the “ADCC EC50 Ratio (fucosylated to defucosylated 2A10), Expt. #3” value turned out to be 18 ratio. The “ADCC % lysis … no anti-CD16 antibody” value in experiment [1] is approximately 37%.

For the origin of these results see patent US20090060908A1 (Bristol-Myers Squibb, published 2009).
